Data on six molecules can be found in PMC9976900.

One data set has as its target pAbp RRM3 (Drosophila, UniProt P21187 176-263). The data set is described as follows: NMR titration.
Data set [1] deals with T1, Unr CSD789 wild type (Drosophila, UniProt B7Z0E2 756-990).
T1 sequence: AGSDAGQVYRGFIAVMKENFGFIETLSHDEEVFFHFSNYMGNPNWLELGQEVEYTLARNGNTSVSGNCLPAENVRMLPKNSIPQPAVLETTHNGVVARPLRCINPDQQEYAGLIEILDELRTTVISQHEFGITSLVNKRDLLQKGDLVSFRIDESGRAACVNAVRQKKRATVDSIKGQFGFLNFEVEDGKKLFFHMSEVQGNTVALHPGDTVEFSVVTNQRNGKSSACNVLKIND
The data set is described as follows: NMR titration.

Data set [2] has as its target T1, Unr CSD789 wild type. The data set is described as follows: ITC.
A further data set addresses T2, Unr CSD789 P860A (Drosophila, UniProt B7Z0E2 756-990, P860A).
T2 sequence: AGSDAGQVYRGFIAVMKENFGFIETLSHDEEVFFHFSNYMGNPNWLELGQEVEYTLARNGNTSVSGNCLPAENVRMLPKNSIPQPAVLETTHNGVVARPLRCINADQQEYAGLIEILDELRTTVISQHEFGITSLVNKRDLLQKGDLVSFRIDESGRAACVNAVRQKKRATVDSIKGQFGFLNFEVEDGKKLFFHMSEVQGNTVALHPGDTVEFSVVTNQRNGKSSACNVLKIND
The data set is described as follows: fluorescence polarization. Background: In fluorescence polarisation assays a small probe gives low polarisation when free and higher when bound to something large.

In another data set the target is T3, Unr CSD789 R976A (Drosophila, UniProt B7Z0E2 756-990, R976A).
T3 sequence: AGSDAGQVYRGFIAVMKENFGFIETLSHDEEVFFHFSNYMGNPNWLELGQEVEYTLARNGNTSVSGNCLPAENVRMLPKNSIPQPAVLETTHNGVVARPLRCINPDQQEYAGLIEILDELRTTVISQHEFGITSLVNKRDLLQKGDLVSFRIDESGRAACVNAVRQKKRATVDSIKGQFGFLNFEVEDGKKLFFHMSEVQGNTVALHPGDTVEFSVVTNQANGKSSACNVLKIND
The data set is described as follows: fluorescence polarization.

In a further data set the target is T4, Unr CSD789 E786A (Drosophila, UniProt B7Z0E2 756-990, E786A).
T4 sequence: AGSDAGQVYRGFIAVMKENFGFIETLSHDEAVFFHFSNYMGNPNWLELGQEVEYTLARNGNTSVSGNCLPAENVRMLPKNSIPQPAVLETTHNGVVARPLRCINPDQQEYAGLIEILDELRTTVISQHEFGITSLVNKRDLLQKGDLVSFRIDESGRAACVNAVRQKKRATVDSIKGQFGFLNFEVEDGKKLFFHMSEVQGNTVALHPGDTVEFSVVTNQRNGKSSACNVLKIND
The data set is described as follows: fluorescence polarization.

Another data set addresses T5, Unr CSD789 K979A (Drosophila, UniProt B7Z0E2 756-990, K979A).
T5 sequence: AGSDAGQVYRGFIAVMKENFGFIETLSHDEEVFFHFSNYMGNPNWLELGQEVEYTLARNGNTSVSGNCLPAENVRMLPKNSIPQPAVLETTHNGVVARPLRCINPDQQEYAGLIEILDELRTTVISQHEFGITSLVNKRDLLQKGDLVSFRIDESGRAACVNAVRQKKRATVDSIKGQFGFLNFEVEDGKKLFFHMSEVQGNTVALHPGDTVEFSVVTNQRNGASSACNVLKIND
The data set is described as follows: fluorescence polarization.

Data set [3] deals with T6, Unr CSD789 E786A/R856A/P860A (ERPmut) (Drosophila, UniProt B7Z0E2 756-990, E786A;R856A;P860A).
T6 sequence: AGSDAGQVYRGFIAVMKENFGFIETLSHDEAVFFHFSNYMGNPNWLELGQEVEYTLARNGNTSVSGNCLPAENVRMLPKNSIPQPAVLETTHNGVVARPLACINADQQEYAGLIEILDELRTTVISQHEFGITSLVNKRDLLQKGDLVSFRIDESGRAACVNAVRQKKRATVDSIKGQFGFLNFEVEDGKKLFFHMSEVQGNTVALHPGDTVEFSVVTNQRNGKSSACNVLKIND
The data set is described as follows: fluorescence polarization.

For the next data set, the target named is T7, Unr CSD789 Q975A (Drosophila, UniProt B7Z0E2 756-990, Q975A).
T7 sequence: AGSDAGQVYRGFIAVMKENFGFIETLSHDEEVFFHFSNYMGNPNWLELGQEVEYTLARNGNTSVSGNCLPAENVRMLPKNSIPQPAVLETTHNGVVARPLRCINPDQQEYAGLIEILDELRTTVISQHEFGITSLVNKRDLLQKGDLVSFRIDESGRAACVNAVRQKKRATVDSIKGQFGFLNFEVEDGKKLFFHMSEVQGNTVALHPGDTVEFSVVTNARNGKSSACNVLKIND
The data set is described as follows: fluorescence polarization.

The target in the next data set is T8, Unr CSD789 N977A (Drosophila, UniProt B7Z0E2 756-990, N977A).
T8 sequence: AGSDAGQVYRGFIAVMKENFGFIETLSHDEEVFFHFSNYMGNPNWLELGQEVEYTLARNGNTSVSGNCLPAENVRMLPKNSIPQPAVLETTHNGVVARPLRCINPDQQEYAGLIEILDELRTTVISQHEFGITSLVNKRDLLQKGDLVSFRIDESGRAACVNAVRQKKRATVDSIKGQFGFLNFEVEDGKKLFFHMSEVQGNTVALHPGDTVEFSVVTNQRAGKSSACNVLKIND
The data set is described as follows: fluorescence polarization.

In a further data set the target is T9, Unr CSD789 R856A (Drosophila, UniProt B7Z0E2 756-990, R856A).
T9 sequence: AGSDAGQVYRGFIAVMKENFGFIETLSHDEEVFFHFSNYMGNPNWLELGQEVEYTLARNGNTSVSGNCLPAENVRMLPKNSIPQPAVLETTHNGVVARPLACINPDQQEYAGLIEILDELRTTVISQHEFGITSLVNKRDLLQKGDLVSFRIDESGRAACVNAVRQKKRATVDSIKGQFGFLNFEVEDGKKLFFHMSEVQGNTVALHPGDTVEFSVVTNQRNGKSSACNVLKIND
The data set is described as follows: fluorescence polarization.

A further data set addresses T10, Unr CSD789 Q868A (Drosophila, UniProt B7Z0E2 756-990, Q898A).
T10 sequence: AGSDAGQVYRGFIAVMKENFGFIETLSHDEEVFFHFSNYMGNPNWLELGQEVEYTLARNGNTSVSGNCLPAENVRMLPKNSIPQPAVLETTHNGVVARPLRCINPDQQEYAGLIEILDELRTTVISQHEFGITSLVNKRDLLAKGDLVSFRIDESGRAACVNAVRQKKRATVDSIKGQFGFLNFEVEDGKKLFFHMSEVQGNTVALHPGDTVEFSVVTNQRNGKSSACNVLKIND
The data set is described as follows: fluorescence polarization.

In data set [4] the target is T1, Unr CSD789 wild type. The data set is described as follows: fluorescence polarization.

pAbp RRM3, sequence (P21187 176-263): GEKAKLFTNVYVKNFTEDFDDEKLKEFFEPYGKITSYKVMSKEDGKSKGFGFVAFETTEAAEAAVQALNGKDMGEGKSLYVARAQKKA

In general, Kd refers to the constant that tells how readily two partners part at equilibrium. Read a high Kd as a looser complex. For the molecule AAAAA (ssRNA) [A5-mer], in the data set with pAbp RRM3, the binding result was “binds”. Further, in the data set with Unr CSD789 wild type [1], the dissociation constant (Kd) stood at 127 ± 16.6 µM.

Regarding AAAAAAAAAAAAAAA (ssRNA) [A15-mer], the Kd with Unr CSD789 wild type [2] came to 4.8 ± 0.8 µM; with Unr CSD789 wild type [1] it was 8 ± 1.5 µM.

AAAAAAAAAAAAAAA (ssRNA) [A15-mer, 3' labelled]: the Kd with Unr CSD789 P860A was 67.2 ± 7.9 µM; in the data set with Unr CSD789 R976A, 161 ± 51.2 µM; with Unr CSD789 E786A it was 50.1 ± 6.4 µM; in the data set with Unr CSD789 K979A, 160 ± 57.6 µM; in data set [3] it was around 94.7 µM; with Unr CSD789 Q975A, 38.2 ± 8.7 µM. Further, the Kd is 71.2 ± 12.5 µM with Unr CSD789 N977A, 72.4 ± 11 µM in the data set with Unr CSD789 R856A, 61 ± 12.1 µM in the data set with Unr CSD789 Q868A and 21.1 ± 3.6 µM with Unr CSD789 wild type [4].

AAAAAAA (ssRNA) [A7-mer]: the dissociation constant (Kd) in the data set with Unr CSD789 wild type [2] is 17.7 ± 5.2 µM.

The molecule AAAAAAAAA (ssRNA) [A9-mer] yielded a Kd with Unr CSD789 wild type [2] of 4.3 ± 1.3 µM. Compared with the last molecule, the Kd is about 4.1-fold lower.

With AAAAAAAA (ssRNA) [A8-mer], binding with Unr CSD789 wild type [2] was put at a Kd of 4.4 ± 2.7 µM. For the same molecule, in the data set with pAbp RRM3, the binding result is on record as “binds”.
